target: T1, Spo11;Rec102;Rec104;Ski8 (Saccharomyces cerevisiae;Saccharomyces …, UniProt P23179;Q02721;P33323;Q02793 1-398;1-264;1-182;1-397, |||); assay: EMSA
T1 sequence (P23179 whole entry, chain 1 of 4): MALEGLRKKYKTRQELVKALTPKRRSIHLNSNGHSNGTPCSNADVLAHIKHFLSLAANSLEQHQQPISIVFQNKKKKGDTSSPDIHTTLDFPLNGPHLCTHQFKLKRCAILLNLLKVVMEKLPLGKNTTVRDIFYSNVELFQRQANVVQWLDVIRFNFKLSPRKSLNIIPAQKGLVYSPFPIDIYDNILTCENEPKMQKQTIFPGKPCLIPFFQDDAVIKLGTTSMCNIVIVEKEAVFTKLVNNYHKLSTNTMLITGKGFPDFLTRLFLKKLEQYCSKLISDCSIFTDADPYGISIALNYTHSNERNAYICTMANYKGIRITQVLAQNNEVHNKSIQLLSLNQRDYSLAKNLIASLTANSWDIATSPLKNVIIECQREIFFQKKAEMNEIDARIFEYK
T1 sequence (Q02721 whole entry, chain 2 of 4): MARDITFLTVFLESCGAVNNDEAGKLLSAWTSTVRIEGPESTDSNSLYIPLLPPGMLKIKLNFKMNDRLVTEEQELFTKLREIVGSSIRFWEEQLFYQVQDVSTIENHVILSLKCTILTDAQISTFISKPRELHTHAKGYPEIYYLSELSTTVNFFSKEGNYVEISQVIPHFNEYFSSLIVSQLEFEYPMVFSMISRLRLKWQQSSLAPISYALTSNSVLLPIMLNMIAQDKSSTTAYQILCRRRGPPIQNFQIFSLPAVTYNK
T1 sequence (P33323 whole entry, chain 3 of 4): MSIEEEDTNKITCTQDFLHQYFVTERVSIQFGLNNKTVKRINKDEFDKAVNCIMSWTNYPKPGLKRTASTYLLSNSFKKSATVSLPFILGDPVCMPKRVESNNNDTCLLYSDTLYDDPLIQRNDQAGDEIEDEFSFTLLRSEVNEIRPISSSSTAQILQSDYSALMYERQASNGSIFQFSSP
T1 sequence (Q02793 whole entry, chain 4 of 4): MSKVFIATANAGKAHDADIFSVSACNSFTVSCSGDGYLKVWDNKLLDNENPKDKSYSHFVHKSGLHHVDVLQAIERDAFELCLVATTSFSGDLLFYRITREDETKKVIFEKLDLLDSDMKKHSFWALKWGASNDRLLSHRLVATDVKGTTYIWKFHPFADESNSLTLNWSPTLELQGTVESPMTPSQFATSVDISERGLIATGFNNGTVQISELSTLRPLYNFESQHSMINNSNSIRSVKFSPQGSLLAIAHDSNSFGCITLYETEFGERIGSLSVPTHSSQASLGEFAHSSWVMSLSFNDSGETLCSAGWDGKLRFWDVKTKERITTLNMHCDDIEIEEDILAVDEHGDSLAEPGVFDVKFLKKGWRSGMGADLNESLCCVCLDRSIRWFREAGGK

Row | Binder | binding result
1 | 33 bp (dsDNA) DNA 1: TAGCAATGTAATCGTCTATGACGTGCATAGCGC DNA 2: TAGCGCTATGCACGTCATAGACGATTACATTGC | binds
2 | 24 bp (dsDNA) DNA 1: TAGCAATGTAATCGTCTATGACGT DNA 2: TAACGTCATAGACGATTACATTGC | binds
3 | 31 bp (dsDNA) DNA 1: TAGCAATGTAATCGTCTATGACGTGTAGCGC DNA 2: TAGCGCTACACGTCATAGACGATTACATTGC | binds
4 | 30 bp (dsDNA) DNA 1: TAGCAATGTAATCGTCTATGACGTTAGCGC DNA 2: TAGCGCTAACGTCATAGACGATTACATTGC | binds
5 | 25 bp (dsDNA) DNA 1: TAGCAATGTAATCGTCTATGACGTT DNA 2: TAAACGTCATAGACGATTACATTGC | binds
6 | 32 bp (dsDNA) DNA 1: TAGCAATGTAATCGTCTATGACGTGATAGCGC DNA 2: TAGCGCTATCACGTCATAGACGATTACATTGC | binds

target: T1, Spo11;Rec102;Rec104;Ski8; assay: EMSA; remark: another data set of the same source

Row | Binder | binding result
7 | 34 bp (dsDNA) DNA 1: TAGCAATGTAATCGTCTATGACGTGTCATAGCGC DNA 2: TAGCGCTATGACACGTCATAGACGATTACATTGC | binds
